Our source for the Km values is publication PMC8194188, “Kinetic modeling of phosphorylase-catalyzed iterative β-1,4-glycosylation for degree of polymerization-controlled synthesis of soluble cello-oligosaccharides” (Biotechnology for Biofuels, 2021).

Substrate in this series: O=P(O)(O)O[C@H]1O[C@H](CO)[C@@H](O)[C@H](O)[C@H]1O
The experiment in a line: initial rates from phosphate release, Michaelis-Menten fit. The series is classed as biochemical, [Clostridium] cellulosi. The note with it: 100 mM cellobiose (saturating), 50 mM MES pH 7.0, 45 °C, synthesis direction.

B1: CcCdP (cellodextrin phosphorylase from Clostridium cellulosi) ([Clostridium] cellulosi) (protein)
chain: MITKVTPRSCKLTPFEILKQKFGSIIAMSGCADAIYSDSSCKNVIGITGLPIKAPVIQVLLENSKLAAFLNEYVQNKSVCLALEGMRYCLVFEDGQKVKLPQELDDIIQSTVSDVKNWAGTLTENGEHVIDLKKPSPGPHFYVNLLIGNRLGFNRTLQTTPKSVVDRFGRGSFRSHAATQVLATRYDMRQEENGFPANRQFYLYENGKQIFYSGSVDDDNILEAKCIHSCNRTVIKYKTACKLEITRTIFLCPQKKGLPLATEIQIINIKNNSERKRNLSITYTGMFGTAATHAIFEDVTYTNVIMQSAALYNDNGEFIGITPDYYRKKYNEDTRFVTMFVRKDGKRIFPKSFCTDYNDFVGNGTLEHPAGGEHLNNKLNRKGPGFFALGTPFTIMPGQDIEIDTFTGMSSSKDNPNYDDTTMPKELEALLRYFEASDSVQSALREVIDFQEKYCKYIEFKTEDKMFNAGFNKNLAFQILYQTFMSRSFCQTQKGYREIGFREIQDLYASMYYFINLGYQDFVKNLLFEWTSNVYKMGYANHNFYWVGKQPGLYSDDSLWLLQAYYRYIIYTKDTSILNEEVPVADGNNEKRAVRDTLKAIIQYSAFISVGNHGLPLLDLADWNDCLKIDNDYVDGAQKEKLYYKQLKETGGKYGDRFMSDYSESVMNAFLLKVAVDDLAEIAELDKDAELEQSMRKISSALSEKIQKYAWKGNFFARVLLNRYKDGSFTYIGAKGDKLSADPNIDGTYFLNSFSWAILSGVATDEQIGIMVDTLKKYMLTPYGIRLTTPADLNKLANDTATDHYFYGDRENGAVFKHASMMATAALAKAAKSVKDKALAKEMARLAYYMIDLVLPYKNLEDPFKLAGNPRICTQYINADSGENIGPLLSGTATWLNLTITSLAGIEYVKDGIMFSPVLREDETRLEYSLKAPGCSYNITITKPRGFARLIDSAYDLRIDGKKTDNCIIPMFTDGKEHSVTLEFK
notes: N-terminally His-tagged, recombinant, purified
The Km is the substrate concentration at which the rate is half of its maximum. For B1, the Km is 470 ± 240 µM.
